The results in this text go back to paper doi:10.1101/2020.08.02.233007 (bioRxiv, 2020).

The target of series [1] is T1, recombinant full-length UVR8 (wild type) from Sf9 cells (Arabidopsis, UniProt Q9FN03 1-440).
T1 sequence: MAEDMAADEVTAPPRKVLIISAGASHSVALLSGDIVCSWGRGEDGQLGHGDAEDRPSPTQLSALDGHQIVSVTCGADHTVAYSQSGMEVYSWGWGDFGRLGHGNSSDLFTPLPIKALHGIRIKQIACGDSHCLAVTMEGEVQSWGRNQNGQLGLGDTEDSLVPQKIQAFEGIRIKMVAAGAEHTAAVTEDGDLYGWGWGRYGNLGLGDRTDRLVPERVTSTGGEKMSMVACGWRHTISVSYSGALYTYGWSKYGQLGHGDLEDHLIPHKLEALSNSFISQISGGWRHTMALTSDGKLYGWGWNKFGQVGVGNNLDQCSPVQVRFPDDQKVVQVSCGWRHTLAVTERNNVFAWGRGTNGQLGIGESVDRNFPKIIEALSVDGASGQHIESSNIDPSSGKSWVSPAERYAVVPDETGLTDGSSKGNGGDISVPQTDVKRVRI
Kind of series: grating-coupled interferometry.

Series [2] addresses T2, recombinant full-length UVR8^W285A from Sf9 cells (Arabidopsis, UniProt Q9FN03 1-440, W285A).
T2 sequence: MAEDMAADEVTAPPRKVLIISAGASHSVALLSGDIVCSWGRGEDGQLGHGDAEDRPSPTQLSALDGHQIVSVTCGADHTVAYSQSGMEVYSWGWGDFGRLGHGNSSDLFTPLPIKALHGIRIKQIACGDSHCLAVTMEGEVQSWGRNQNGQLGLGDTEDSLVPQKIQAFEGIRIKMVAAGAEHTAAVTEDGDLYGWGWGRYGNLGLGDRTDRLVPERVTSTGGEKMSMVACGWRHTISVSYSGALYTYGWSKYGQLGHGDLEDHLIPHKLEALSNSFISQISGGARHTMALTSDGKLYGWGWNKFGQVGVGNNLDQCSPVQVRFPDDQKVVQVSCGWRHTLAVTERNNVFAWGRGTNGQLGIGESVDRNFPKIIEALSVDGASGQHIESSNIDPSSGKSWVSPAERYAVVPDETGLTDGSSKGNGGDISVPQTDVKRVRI
The experiment in a line: grating-coupled interferometry.

Series [3] has as its target T3, recombinant full-length UVR8^W285A from Sf9 cells (Arabidopsis), Q9FN03.
T3 chain: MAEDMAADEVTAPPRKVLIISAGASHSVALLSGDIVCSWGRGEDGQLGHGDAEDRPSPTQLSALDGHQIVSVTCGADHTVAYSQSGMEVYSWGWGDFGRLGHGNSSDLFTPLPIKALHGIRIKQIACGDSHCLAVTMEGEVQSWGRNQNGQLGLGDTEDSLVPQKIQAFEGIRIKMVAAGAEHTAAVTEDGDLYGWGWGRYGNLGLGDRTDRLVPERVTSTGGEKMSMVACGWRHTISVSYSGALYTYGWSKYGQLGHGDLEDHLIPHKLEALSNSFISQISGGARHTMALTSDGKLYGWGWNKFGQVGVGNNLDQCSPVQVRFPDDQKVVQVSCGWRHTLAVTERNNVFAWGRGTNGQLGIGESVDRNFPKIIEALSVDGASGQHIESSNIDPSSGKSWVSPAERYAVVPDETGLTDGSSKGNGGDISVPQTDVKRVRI
Kind of series: SEC. The settings on record: remark: other sources report otherwise.

The series “cross-linking” concerns the molecule itself. The experiment in a line: cross-linking.
For series [4], the target named is T4, UVR8^W285A overexpressed in uvr8-7/Pro35S:UVR8^W285A seedlings (Arabidopsis thaliana), Q9FN03.
T4 chain: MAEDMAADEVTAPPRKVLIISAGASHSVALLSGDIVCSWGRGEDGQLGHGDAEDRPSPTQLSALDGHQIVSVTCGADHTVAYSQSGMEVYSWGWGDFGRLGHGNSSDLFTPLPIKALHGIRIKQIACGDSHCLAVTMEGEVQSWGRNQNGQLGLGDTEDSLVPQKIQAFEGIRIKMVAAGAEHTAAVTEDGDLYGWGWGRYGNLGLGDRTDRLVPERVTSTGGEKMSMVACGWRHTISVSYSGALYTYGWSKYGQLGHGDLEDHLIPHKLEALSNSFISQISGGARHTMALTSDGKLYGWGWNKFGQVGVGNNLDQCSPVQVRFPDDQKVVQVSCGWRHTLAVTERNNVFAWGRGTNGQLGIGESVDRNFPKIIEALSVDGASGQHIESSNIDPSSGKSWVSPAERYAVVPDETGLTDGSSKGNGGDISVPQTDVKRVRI
The experiment in a line: cross-linking. Particulars: remark: other sources report otherwise.

B1: COP1 WD40 domain (COP1^349–675), recombinant from Sf9 cells (domain or fragment)
chain: TFTRYSRLRVIAEIRHGDIFHSANIVSSIEFDRDDELFATAGVSRCIKVFDFSSVVNEPADMQCPIVEMSTRSKLSCLSWNKHEKNHIASSDYEGIVTVWDVTTRQSLMEYEEHEKRAWSVDFSRTEPSMLVSGSDDCKVKVWCTRQEASVINIDMKANICCVKYNPGSSNYIAVGSADHHIHYYDLRNISQPLHVFSGHKKAVSYVKFLSNNELASASTDSTLRLWDVKDNLPVRTFRGHTNEKNFVGLTVNSEYLACGSETNEVYVYHKEITRPVTSHRFGSPDMDDAEEEAGSYFISAVCWKSDSPTMLTANSQGTIKVLVLAA
For B1, the binding result in series [1] and in series [2] was “binds” in each case.

B2: recombinant full-length UVR8^W285A from Sf9 cells, Q9FN03 1-440 (natural protein)
chain: MAEDMAADEVTAPPRKVLIISAGASHSVALLSGDIVCSWGRGEDGQLGHGDAEDRPSPTQLSALDGHQIVSVTCGADHTVAYSQSGMEVYSWGWGDFGRLGHGNSSDLFTPLPIKALHGIRIKQIACGDSHCLAVTMEGEVQSWGRNQNGQLGLGDTEDSLVPQKIQAFEGIRIKMVAAGAEHTAAVTEDGDLYGWGWGRYGNLGLGDRTDRLVPERVTSTGGEKMSMVACGWRHTISVSYSGALYTYGWSKYGQLGHGDLEDHLIPHKLEALSNSFISQISGGARHTMALTSDGKLYGWGWNKFGQVGVGNNLDQCSPVQVRFPDDQKVVQVSCGWRHTLAVTERNNVFAWGRGTNGQLGIGESVDRNFPKIIEALSVDGASGQHIESSNIDPSSGKSWVSPAERYAVVPDETGLTDGSSKGNGGDISVPQTDVKRVRI
For the molecule B2, in series [3], the stoichiometry N – broadly, a count of units in the complex or per binding partner – was found to be 2.

B3: UVR8^W285F overexpressed in uvr8-7/Pro35S:UVR8^W285F seedlings (natural protein)
chain: MAEDMAADEVTAPPRKVLIISAGASHSVALLSGDIVCSWGRGEDGQLGHGDAEDRPSPTQLSALDGHQIVSVTCGADHTVAYSQSGMEVYSWGWGDFGRLGHGNSSDLFTPLPIKALHGIRIKQIACGDSHCLAVTMEGEVQSWGRNQNGQLGLGDTEDSLVPQKIQAFEGIRIKMVAAGAEHTAAVTEDGDLYGWGWGRYGNLGLGDRTDRLVPERVTSTGGEKMSMVACGWRHTISVSYSGALYTYGWSKYGQLGHGDLEDHLIPHKLEALSNSFISQISGGFRHTMALTSDGKLYGWGWNKFGQVGVGNNLDQCSPVQVRFPDDQKVVQVSCGWRHTLAVTERNNVFAWGRGTNGQLGIGESVDRNFPKIIEALSVDGASGQHIESSNIDPSSGKSWVSPAERYAVVPDETGLTDGSSKGNGGDISVPQTDVKRVRI
With B3, the “stoichiometry N” value in “cross-linking” was 2.

B4: UVR8^W285A overexpressed in uvr8-7/Pro35S:UVR8^W285A seedlings, Q9FN03 1-440 (natural protein)
chain: MAEDMAADEVTAPPRKVLIISAGASHSVALLSGDIVCSWGRGEDGQLGHGDAEDRPSPTQLSALDGHQIVSVTCGADHTVAYSQSGMEVYSWGWGDFGRLGHGNSSDLFTPLPIKALHGIRIKQIACGDSHCLAVTMEGEVQSWGRNQNGQLGLGDTEDSLVPQKIQAFEGIRIKMVAAGAEHTAAVTEDGDLYGWGWGRYGNLGLGDRTDRLVPERVTSTGGEKMSMVACGWRHTISVSYSGALYTYGWSKYGQLGHGDLEDHLIPHKLEALSNSFISQISGGARHTMALTSDGKLYGWGWNKFGQVGVGNNLDQCSPVQVRFPDDQKVVQVSCGWRHTLAVTERNNVFAWGRGTNGQLGIGESVDRNFPKIIEALSVDGASGQHIESSNIDPSSGKSWVSPAERYAVVPDETGLTDGSSKGNGGDISVPQTDVKRVRI
B4 registered a stoichiometry N in series [4] of 2.
